Numbering of substitutions follows the chain as printed. *: point of attachment. βGlcNAc = CC(=O)N[C@@H]1[C@@H](O)[C@H](O)[C@@H](CO)O[C@H]1*

One experiment deals with T1, hOGA (Homo sapiens, UniProt O60502).
T1 sequence (O60502 1-916): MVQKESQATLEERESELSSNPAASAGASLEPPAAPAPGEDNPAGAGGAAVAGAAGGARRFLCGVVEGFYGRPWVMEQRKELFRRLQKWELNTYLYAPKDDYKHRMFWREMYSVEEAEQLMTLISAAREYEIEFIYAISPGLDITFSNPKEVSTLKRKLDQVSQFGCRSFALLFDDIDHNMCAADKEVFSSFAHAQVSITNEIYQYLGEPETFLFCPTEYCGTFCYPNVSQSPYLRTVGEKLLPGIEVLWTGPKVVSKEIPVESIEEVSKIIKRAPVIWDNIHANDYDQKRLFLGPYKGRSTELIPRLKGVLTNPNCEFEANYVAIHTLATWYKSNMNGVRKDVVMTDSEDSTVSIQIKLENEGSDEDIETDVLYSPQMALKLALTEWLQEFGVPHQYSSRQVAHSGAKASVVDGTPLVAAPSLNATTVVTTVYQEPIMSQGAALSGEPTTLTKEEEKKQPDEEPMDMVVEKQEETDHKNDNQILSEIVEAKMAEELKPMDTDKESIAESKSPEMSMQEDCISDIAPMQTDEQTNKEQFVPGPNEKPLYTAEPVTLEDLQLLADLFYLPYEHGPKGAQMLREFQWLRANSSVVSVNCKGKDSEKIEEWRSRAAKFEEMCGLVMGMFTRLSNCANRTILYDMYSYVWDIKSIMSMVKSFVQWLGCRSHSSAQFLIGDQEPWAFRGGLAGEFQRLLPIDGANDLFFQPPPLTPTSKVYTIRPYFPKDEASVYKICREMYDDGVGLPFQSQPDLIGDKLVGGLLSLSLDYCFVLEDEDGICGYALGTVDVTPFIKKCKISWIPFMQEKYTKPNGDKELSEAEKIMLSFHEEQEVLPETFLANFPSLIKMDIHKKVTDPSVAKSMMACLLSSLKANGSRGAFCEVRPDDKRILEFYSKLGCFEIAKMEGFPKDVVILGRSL
On the set-up: GST (N); made in house. Conditions: wild-type hOGA; substrate competition assay with 4MU-GlcNAc; value reproduced from earlier paper; ref Schimpl et al., 2010; read-out: Michaelis constant (KM) of glycopeptide substrate for hOGA; cited from earlier work. The text has this:
Table 1 Hydrophobic Stacking Interactions of Tyr69 Are Essential for Substrate Binding by hOGA | column: hOGA Peptide / VAHS(O-GlcNAc)GAK || Table 2 Intramolecular Hydrogen Bonds Stabilize the Substrate Conformation and Reduce the Km for hOGA | column: TAB1 Peptide (Ser395) || Figure 1 OGA Binds Different O-GlcNAc Glycopeptides with Similar Conformation but Different Affinities (A) Origin and sequence of O-GlcNAc peptides. The sequence of the longest peptides used is given, with residues observed in the crystal structure highlighted by colored boxes, and the shorter peptides indicated by brackets.

For experiment [1], the target named is T2, human O-GlcNAcase (hOGA) Y69F (human) (UniProt O60502).
T2 sequence: T1 sequence (O60502 1-916) with Y69F

For experiment [2], the target named is T3, human O-GlcNAcase (hOGA), wild-type (human) (UniProt O60502).
T3 sequence: T1 sequence (O60502 1-916)

Take “VAHS(O-GlcNAc)GAK [hOGA (Ser405) 7, 7-residue O-GlcNAc glycopeptide derived from hOGA Ser405 site]”: the Km (as a rule, the concentration of substrate that gives half-maximal velocity) on hOGA is 790 ± 40 µM.

B1: TAB1 peptide PVSVPYS(O-GlcNAc)SAQSTS (peptide)
peptide: Ac-PVSVPYS(βGlcNAc)SAQSTS-NH2
SMILES: CC(=O)N[C@H]1[C@H](OC[C@H](NC(=O)[C@H](Cc2ccc(O)cc2)NC(=O)[C@@H]2CCCN2C(=O)[C@@H](NC(=O)[C@H](CO)NC(=O)[C@@H](NC(=O)[C@@H]2CCCN2C(C)=O)C(C)C)C(C)C)C(=O)N[C@@H](CO)C(=O)N[C@@H](C)C(=O)N[C@@H](CCC(N)=O)C(=O)N[C@@H](CO)C(=O)N[C@H](C(=O)N[C@@H](CO)C(N)=O)[C@@H](C)O)O[C@H](CO)[C@@H](O)[C@@H]1O
For B1, the figures for the KM of the glycopeptide substrate (substrate competition assay with 4MU-GlcNAc as reporter substrate) in experiment [1] and in experiment [2] were 1100 µM and 940 µM, respectively.

The record behind these values is PMC3476531, “Synergy of Peptide and Sugar in O-GlcNAcase Substrate Recognition” (Chemistry & Biology, 2012).
